± gives the uncertainty stated by the source.
Assay: self-splicing fitness, log relative to wild type (ln ratio); higher = more splicing; Tetrahymena group I intron in knt gene, E. coli kanamycin selection, DiMSum; sequences stand for … in CUCUCU…GGAGGGAAAAGUUAUCAGGCAUGCACCUGGUAGCUAGUCUUUAAACCAAUAGAUUGCAUCGGUUUAAAAGGCAAGACCGUCAAAUUGCGGGAAAGGGGUCAACAGCCGUUCAGUACCAAGUCUCAGGGGAAACUUUGAGAUGGCCUUGCAAAGGGUAUGGUAAUAAGCUGACGGACAUGGUCCUAACCACGCAGCCAAGUCCUAAGUCAACAGAUCUUCUGUUGAUAUGGAUGCAGUUCACAGACUAAAUGUCGGUCGGGGAAGAUGUAUUCUUCUCAUAAGAUAUAGUCGGACCUCUCCUUAAUGGGAGCUAGCGGAUGAAGUGAUGCAACACUGGAGCCGCUGGGAACUAAUUUGUAUGCGAAAGUAUAUUGAUUAGUUUUGGAGUACUCGUGGUCG
How it was run: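 Library with all eight P1ex-region intron nucleotides randomised, intron inside the knt kanamycin-resistance gene on pET-22b(+), in E. coli BL21(DE3). Cells grew overnight at 37°C or 30°C on LB agar with or without 25 μg/mL kanamycin (plus 100 μg/mL carbenicillin, 50 μM IPTG, 0.2% rhamnose), in six replicate transformations. Pooled colonies were amplicon-sequenced on Illumina HiSeq 2500. DiMSum fitness is the error-weighted combination of wild-type-normalised replicate fold changes, kanamycin versus none.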

Row | Sequence | self-splicing fitness (ln) (30 °C) | self-splicing fitness (ln) (37 °C)
1 | AGGCAGCAAUAUUACGCCAU | -2.27 ± 0.25 | -1.39 ± 0.3
2 | GGGGAGCAAUAUUACGUUAG | -3.73 ± 0.43 | -0.485 ± 0.33
3 | UCACAGCAAUAUUACGAAAA | -3 ± 0.31 | -1.27 ± 0.17
4 | AUAUAGCAAUAUUACGAGCG | -2.19 ± 0.17 | -0.66 ± 0.16
5 | ACCGAGCAAUAUUACGGACC | -1.29 ± 0.082 | -0.293 ± 0.092
6 | AAUAAGCAAUAUUACGUGCA | -0.334 ± 0.062 | 0.0616 ± 0.079
7 | UUCCAGCAAUAUUACGACAU | -2.874 ± 0.018 | -1.61 ± 0.035
8 | GUAUAGCAAUAUUACGUCGU | -2.22 ± 0.12 | -0.949 ± 0.13
9 | GAUAAGCAAUAUUACGGUGC | -2.8 ± 0.19 | -2.17 ± 0.22
10 | UAUAAGCAAUAUUACGCGUA | -1.84 ± 0.2 | -0.627 ± 0.17
11 | UAGGAGCAAUAUUACGCAGU |  | -1.96 ± 0.28
12 | AGGCAGCAAUAUUACGGGCU | -0.928 ± 0.071 | -1.51 ± 0.11
13 | GAGAAGCAAUAUUACGCUUA | -2.41 ± 0.12 | -1.24 ± 0.13
14 | GGAAAGCAAUAUUACGUUCU | -3.94 ± 0.21 | -3.07 ± 0.23
15 | UCUCAGCAAUAUUACGCACU | -0.801 ± 0.13 | -0.465 ± 0.14
16 | UCACAGCAAUAUUACGUUGC | -4.42 ± 0.23 | -2.95 ± 0.23
17 | GAACAGCAAUAUUACGAGCC | -1.57 ± 0.14 | -1.09 ± 0.22
18 | CUGAAGCAAUAUUACGGCCA | -2.42 ± 0.17 | -2.69 ± 0.34
19 | CGGUAGCAAUAUUACGACGU | -1.76 ± 0.13 | -1.08 ± 0.17
20 | ACGAAGCAAUAUUACGUCGU | -3.41 ± 0.29 | -3.5 ± 0.42
21 | GAAGAGCAAUAUUACGCUCC | -2.52 ± 0.24 | 
22 | GUCCAGCAAUAUUACGAAUU | -0.818 ± 0.078 | 0.257 ± 0.097
23 | GGCCAGCAAUAUUACGGCUU | -3.45 ± 0.21 | -2.68 ± 0.22
24 | AGGUAGCAAUAUUACGGAUG | -3.698 ± 0.028 | -2.39 ± 0.037
25 | UUCCAGCAAUAUUACGAGGU | -1.96 ± 0.17 | -1.87 ± 0.16

Row | Sequence | self-splicing fitness (ln) (30 °C) | self-splicing fitness (ln) (37 °C)
26 | GCACAGCAAUAUUACGGAGU | -1.69 ± 0.05 | -0.838 ± 0.061
27 | AAAAAGCAAUAUUACGUAUC | -2.37 ± 0.089 | -1.5 ± 0.12
28 | UCCGAGCAAUAUUACGCAAC | -2.57 ± 0.3 | -1.66 ± 0.33
29 | GAUAAGCAAUAUUACGGCUU | -0.701 ± 0.1 | -0.0417 ± 0.14
30 | CUGUAGCAAUAUUACGGUAG | -2.9 ± 0.21 | -1.98 ± 0.25
31 | GCACAGCAAUAUUACGUGGC | -4.03 ± 0.18 | -2.74 ± 0.15
32 | AUAGAGCAAUAUUACGAGCA | -2.57 ± 0.19 | -0.949 ± 0.2
33 | UGUCAGCAAUAUUACGAAGU | -4.02 ± 0.46 | -1.93 ± 0.24
34 | GGAAAGCAAUAUUACGUAUG | -2.27 ± 0.1 | -2.04 ± 0.15
35 | CGUUAGCAAUAUUACGUGCG | -3.7 ± 0.14 | -2.71 ± 0.15
36 | UUGGAGCAAUAUUACGCCGG |  | -1.08 ± 0.34
37 | UAUUAGCAAUAUUACGUCCA | -0.691 ± 0.11 | -0.00937 ± 0.15
38 | AGAGAGCAAUAUUACGACGU | -1.84 ± 0.15 | -0.382 ± 0.15
39 | AGUGAGCAAUAUUACGCCCG | -2.27 ± 0.4 | 
40 | UGUCAGCAAUAUUACGCACC | -1.28 ± 0.18 | -0.269 ± 0.21
41 | AUCCAGCAAUAUUACGACAU | 0.00336 ± 0.011 | 0.408 ± 0.032
42 | AAUGAGCAAUAUUACGAGUC | -4.32 ± 0.46 | -3.08 ± 0.47
43 | GAUUAGCAAUAUUACGAUUG | -1.71 ± 0.13 | -0.919 ± 0.18
44 | CUUAAGCAAUAUUACGUAGG | -2.58 ± 0.1 | -1.35 ± 0.14
45 | CGCCAGCAAUAUUACGACCG | -0.693 ± 0.083 | -0.103 ± 0.12
46 | GUCGAGCAAUAUUACGAAGC | -2.37 ± 0.19 | -1.85 ± 0.23
47 | ACUUAGCAAUAUUACGUGGU | -3.62 ± 0.21 | -2.26 ± 0.17
48 | UGCGAGCAAUAUUACGCUAU |  | -2.46 ± 0.38
49 | CUCUAGCAAUAUUACGCGGA | -3.1 ± 0.4 | -1.9 ± 0.34
50 | AUGUAGCAAUAUUACGGCUC | 0.231 ± 0.27 | 

Reference: the supplement of paper PMC7877785
